Data published in patent publication US20100129347A1 (OSAKA UNIVERSITY, published 2010).

Key:
[1] = target: T1, FLAG-tagged extracellular region of gB (29th to 720th amino acids) with transmembrane and intracellu (HSV-1; mouse, UniProt P06436 29-720); assay: flow cytometry on transfected 293T cells
T1 construct: also called cell expressing gB; cells to which gB had been transfected

[2] = target: T2, glycoprotein B (gB) of HSV-1 (HSV-1, UniProt P06436 30-903); assay: immunoprecipitation from lysate of HSV-1-infected 293T cells, SDS-PAGE, silver stain
T2 construct: also called protein of 110 kDa; PILR-recognizing ligand

Binder	binding result [1]	binding result [2]
HVEM-Ig (Fc fusion, not shown: Ig part not described) LPSCKEDEYPVGSECCPKCSPGYRVKEACGELTGTVCEPCPPGTYIAHLNGLSKCLQCQMCDPAMGLRASRNCSRTENAVCGCSPGHFCIVQDGDHCAACRAYATSSPGQRVQKGGTESQDTLCQNCPPGTFSPNGTLEECQHQTKCSWLVTKAGAGTSSSHWV	no binding	–
human CD200-Ig fusion protein (Fc fusion, Control for PILR-Ig; also called control Ig; not shown: Ig part not described) QVQVVTQDEREQLYTPASLKCSLQNAQEALIVTWQKKKAVSPENMVTFSENHGVVIQPAYKDKINITQLGLQNSTITFWNITLEDEGCYMCLFNTFGFGKISGTACLTVYVQPIVSLHYKFSEDHLNITCSATARPAPMVFWKVPRSGIENSTVTLSHPNGTTSVTSILHIKDPKNQVGKEVICQVLHLGTVTDFKQTVNKG	–	no binding
